From patent US20190169256A1

Columns and labels:
Test in all cases: cell-based or functional assay
[1] = biological target: Salmon tac3 receptor (salmon)
[2] = biological target: Tilapia tac3 receptor (tilapia)
[3] = biological target: Zebrafish tac3 receptor (zebrafish)

Substance: Salmon NKB (slNKB) (peptide)
- EC50 of SRE-Luciferase activity (COS7 cells expressing slNKB receptor) [1]: 1.03 nM

Substance: tilapia NKB (peptide)
- luciferase activity (CRE-Luc, COS-7 cells transfected with salmon tac3r) [1]: 1.8 fold
- luciferase activity (CRE-Luc reporter, COS-7 cells transfected with tilapia tac3 receptor) [2]: 1.8 fold

Substance: zebrafish NKB (peptide)
- CRE-LUC (COS-7 cells transfected with zebrafish tac3 receptor) [3]: > 3 fold
